Assay results as given in article doi:10.1101/038398.

What was measured:
[1] = molecular target: human iNOS oxygenase domain, recombinant (human); experiment: ITC
[2] = molecular target: human iNOS oxygenase domain, recombinant (human); experiment: SPR

Chain of human iNOS oxygenase domain, recombinant (human) (P35228 whole entry, the tested form may be a part): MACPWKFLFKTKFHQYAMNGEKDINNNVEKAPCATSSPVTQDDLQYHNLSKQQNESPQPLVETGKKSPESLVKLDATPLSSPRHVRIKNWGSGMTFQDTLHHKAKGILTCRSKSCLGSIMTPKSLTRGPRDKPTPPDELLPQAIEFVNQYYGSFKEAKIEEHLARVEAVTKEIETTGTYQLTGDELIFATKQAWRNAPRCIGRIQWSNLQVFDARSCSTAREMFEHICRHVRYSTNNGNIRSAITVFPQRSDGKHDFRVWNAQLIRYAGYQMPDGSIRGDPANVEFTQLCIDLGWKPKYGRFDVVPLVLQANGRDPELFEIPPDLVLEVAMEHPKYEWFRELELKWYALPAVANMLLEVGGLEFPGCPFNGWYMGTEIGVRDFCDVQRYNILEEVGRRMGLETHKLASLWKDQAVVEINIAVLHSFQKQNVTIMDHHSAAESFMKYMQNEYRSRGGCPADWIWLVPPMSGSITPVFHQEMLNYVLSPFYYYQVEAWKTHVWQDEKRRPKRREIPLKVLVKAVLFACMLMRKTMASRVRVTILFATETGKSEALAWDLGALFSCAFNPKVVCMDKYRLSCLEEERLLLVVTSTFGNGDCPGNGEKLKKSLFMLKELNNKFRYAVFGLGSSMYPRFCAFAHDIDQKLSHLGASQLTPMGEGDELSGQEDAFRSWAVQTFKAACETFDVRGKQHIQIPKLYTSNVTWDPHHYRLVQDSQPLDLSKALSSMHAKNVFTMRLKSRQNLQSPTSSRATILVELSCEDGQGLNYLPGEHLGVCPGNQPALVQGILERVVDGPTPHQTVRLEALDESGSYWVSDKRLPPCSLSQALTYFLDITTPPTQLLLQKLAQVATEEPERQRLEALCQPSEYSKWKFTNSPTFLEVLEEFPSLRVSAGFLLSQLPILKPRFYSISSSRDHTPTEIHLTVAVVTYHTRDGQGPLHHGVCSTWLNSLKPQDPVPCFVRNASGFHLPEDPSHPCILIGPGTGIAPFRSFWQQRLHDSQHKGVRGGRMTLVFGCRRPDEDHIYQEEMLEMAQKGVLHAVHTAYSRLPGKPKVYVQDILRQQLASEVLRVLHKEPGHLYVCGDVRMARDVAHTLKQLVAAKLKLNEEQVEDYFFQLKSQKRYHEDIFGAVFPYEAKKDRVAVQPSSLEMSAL

dH [1]: -38.2 kcal/mol
stoichiometry N [1]: 0.505
Kd [2]: 7.11 nM
B1: Nitric oxide synthase interacting protein (NOSIP), full length, recombinant (natural protein)
chain: MTRHGKNCTAGAVYTYHEKKKDTAASGYGTQNIRLSRDAVKDFDCCCLSLQPCHDPVVTPDGYLYEREAILEYILHQKKEIARQMKAYEKQRGTRREEQKELQRAASQDHVRGFLEKESAIVSRPLNPFTAKALSGTSPDDVQPGPSVGPPSKDKDKVLPSFWIPSLTPEAKATKLEKPSRTVTCPMSGKPLRMSDLTPVHFTPLDSSVDRVGLITRSERYVCAVTRDSLSNATPCAVLRPSGAVVTLECVEKLIRKDMVDPVTGDKLTDRDIIVLQRGGTGFAGSGVKLQAEKSRPVMQA
